Data on four molecules can be found in US20240085427A1 (published 2024).

A value given as a limit tells only on which side of the number the result lay.

Experiment [1] addresses T1, Anterior Gradient 2 (AGR2) (UniProt O95994 21-175, limits assumed).
T1 sequence (looked up): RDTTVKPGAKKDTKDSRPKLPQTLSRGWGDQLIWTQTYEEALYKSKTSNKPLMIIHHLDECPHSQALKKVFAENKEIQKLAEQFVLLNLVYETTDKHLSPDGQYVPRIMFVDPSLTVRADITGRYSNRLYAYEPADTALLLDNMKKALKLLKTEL
Put plainly: cell-based or functional assay.

In experiment [2] the target is T1, Anterior Gradient 2 (AGR2). Put plainly: ELISA and SPR (so in the source); the same KD in mass units. On the technique in general: ELISA stands for enzyme-linked immunosorbent assay.
In experiment [3] the target is T1, Anterior Gradient 2 (AGR2). Put plainly: ELISA and SPR (so in the source); purified scFv on AGR2.
Experiment [4] has as its target T2, bovine serum albumin (BSA) (bovine, UniProt P02769 25-607).
T2 construct: Control coating in ELISA; also called control (BSA)
Put plainly: ELISA on coated plates (FIG. 6A).

For experiment [5], the target named is T3, Anterior Gradient 2 (AGR2) (UniProt O95994 21-175).
T3 chain: T1 sequence (looked up)
In words: BLI (Octet). In general terms: Biolayer interferometry detects binding as a change in optical thickness at a sensor tip.

Experiment [6] concerns the target T3, Anterior Gradient 2 (AGR2). Put plainly: ELISA.
The target of experiment [7] is Anterior Gradient 2 (AGR2) (UniProt O95994). Put plainly: cell-based or functional assay.

T2 sequence (P02769 25-607 limits assumed): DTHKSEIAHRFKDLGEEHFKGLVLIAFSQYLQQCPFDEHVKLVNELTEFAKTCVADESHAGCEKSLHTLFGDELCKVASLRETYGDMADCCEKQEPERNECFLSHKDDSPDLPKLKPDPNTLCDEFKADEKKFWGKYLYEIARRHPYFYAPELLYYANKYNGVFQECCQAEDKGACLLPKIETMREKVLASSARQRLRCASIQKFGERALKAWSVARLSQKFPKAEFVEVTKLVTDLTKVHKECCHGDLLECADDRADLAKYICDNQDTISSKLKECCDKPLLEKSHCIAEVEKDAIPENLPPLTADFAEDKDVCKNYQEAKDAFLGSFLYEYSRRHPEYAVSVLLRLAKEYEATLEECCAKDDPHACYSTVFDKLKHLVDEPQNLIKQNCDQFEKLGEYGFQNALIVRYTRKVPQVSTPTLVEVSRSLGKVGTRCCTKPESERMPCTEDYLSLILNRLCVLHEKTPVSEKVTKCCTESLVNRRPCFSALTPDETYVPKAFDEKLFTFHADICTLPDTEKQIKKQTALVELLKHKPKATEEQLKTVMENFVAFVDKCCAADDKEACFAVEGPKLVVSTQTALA

B1: anti-AGR2 scFv clone-15 (scFv)
scFv: EVQLLESGGGLVQPGGSLRLSCAASGFTFSSYAMSWVRQAPGKGLEWVSGISAQGAHTTYADSVKGRFTISRDNSKNTLYLQMNSLRAEDTAVYYCAKTYKGFDYWGQGTLVTVSSGGGGSGGGGSGGGGSTDIQMTQSPSSLSASVGDRVTITCRASQSISSYLNWYQQKPGKAPKLLIYSASRLQSGVPSRFSGSGSGTDFTLTISSLQPEDFATYYCQQGRRMPPTFGQGTKVEIK
notes: Found by phage display, cloned into pET22b, produced and purified in BL21(DE3) E. coli; also called AGR2-scFv-15; scFv-15
Regarding B1, in experiment [1], the “EC50 in the same TDCC assay (Capan1 cells with human PBMCs), scFv alone as comparator” value turned out to be 19.8 µM. Besides, the Kd (in general, a measure of binding affinity in units of concentration) in experiment [2] is 4.69 mg/L; in experiment [3] it was 0.179 µM; in experiment [5], 0.00157 µM. Further, the binding result in experiment [4] is given as “no binding”.

B2: anti-AGR2 scFv clone 26 (scFv)
scFv: EVQLLESGGGLVQPGGSLRLSCAASGFTFSSYAMSWVRQAPGKGLEWVSSIQGQGRITRYADSVKGRFTISRDNSKNTLYLQMNSLRAEDTAVYYCAKRAIMFDYWGQGTLVTVSSGGGGSGGGGSGGGGSTDIQMTQSPSSLSASVGDRVTITCRASQSISSYLNWYQQKPGKAPKLLIYHASLLQSGVPSRFSGSGSGTDFTLTISSLQPEDFATYYCQQARYWPLTFGQGTKVEIK
Turning to B2, the EC50 (usually the midpoint of the concentration-response curve) in experiment [6] is over 100 mg/L.

B3: human targeted AGR2xCD3 BiTE (anti-AGR2 scFv clone-15 linked to anti-CD3 scFv derived from Orthoclone OKT3) (bispecific antibody, part only; not given: anti-CD3 scFv, linker, His tag, not shown: small tags and cut ends)
chain, part: EVQLLESGGGLVQPGGSLRLSCAASGFTFSSYAMSWVRQAPGKGLEWVSGISAQGAHTTYADSVKGRFTISRDNSKNTLYLQMNSLRAEDTAVYYCAKTYKGFDYWGQGTLVTVSSGGGGSGGGGSGGGGSTDIQMTQSPSSLSASVGDRVTITCRASQSISSYLNWYQQKPGKAPKLLIYSASRLQSGVPSRFSGSGSGTDFTLTISSLQPEDFATYYCQQGRRMPPTFGQGTKVEIKEVQLLESGGGLVQPGGSLRLSCAASGFTFSSYAMSWVRQAPGKGLEWVSGISAQGAHTTYADSVKGRFTISRDNSKNTLYLQMNSLRAEDTAVYYCAKTYKGFDYWGQGTLVTVSSGGGGSGGGGSGGGGSTDIQMTQSPSSLSASVGDRVTITCRASQSISSYLNWYQQKPGKAPKLLIYSASRLQSGVPSRFSGSGSGTDFTLTISSLQPEDFATYYCQQGRRMPPTFGQGTKVEIK
B3 yielded an EC50 on Capan1 cell viability, BiTE alone (no PBMCs) in experiment [7] of 16.5 µM.

B4: anti-AGR2 scFv clone 19 (scFv)
scFv: EVQLLESGGGLVQPGGSLRLSCAASGFTFSSYAMSWVRQAPGKGLEWVSAIASQGVATGYADSVKGRFTISRDNSKNTLYLQMNSLRAEDTAVYYCAKLDQHFDYWGQGTLVTVSSGGGGSGGGGSGGGGSTDIQMTQSPSSLSASVGDRVTITCRASQSISSYLNWYQQKPGKAPKLLIYQASRLQSGVPSRFSGSGSGTDFTLTISSLQPEDFATYYCQQARRLPLTFGQGTKVEIK
Molecule B4 yielded an EC50 in experiment [6] of over 100 mg/L.
